# According to patent EP4748847A1, “PEPTIDE COMPLEX HAVING VEGFR -2 AGONIST ACTIVITY” (Peptidream Inc, priority 2023, dated 2025):
# Like-named read-outs stand apart in the source and are kept apart here. *1 amine or outer side, *2 acyl side, *3 side chain or, on linkers, in order; H or OH if unused. Bridges are numbered along the chain shown (N, C = ends). Primed or numbered codes have the meaning given here. Where no end group is shown, it is not given here. [ ]: non-standard residue; d: D form. CO(CH2CH2O)9CH2CH2CO = O=C(CCOCCOCCOCCOCCOCCOCCOCCOCCOCCC(=O)[*:2])[*:1]; hTyr = N[C@@H](CCc1ccc(O)cc1)C(=O)O; Cha = N[C@@H](CC1CCCCC1)C(=O)O; Chg = N[C@H](C(=O)O)C1CCCCC1; Tle = CC(C)(C)[C@H](N)C(=O)O; 3Py6NH2 = not defined here; 4Py2NH2 = not defined here; F4aao = not defined here; Ahp′ = not defined here; Atb = not defined here; Yph = not defined here
# Legend:
# Assay in all cases: cell-based or functional assay
# VEGFR-2 [1] = molecular target: T1, VEGFR-2 (human, UniProt P35968 20-1356)
# VEGFR-2 [2] = molecular target: T1, VEGFR-2; remark: listed apart in the source
# VEGFR-2 [3] = molecular target: T1, VEGFR-2; remark: listed apart in the source
# T1 sequence (P35968 20-1356): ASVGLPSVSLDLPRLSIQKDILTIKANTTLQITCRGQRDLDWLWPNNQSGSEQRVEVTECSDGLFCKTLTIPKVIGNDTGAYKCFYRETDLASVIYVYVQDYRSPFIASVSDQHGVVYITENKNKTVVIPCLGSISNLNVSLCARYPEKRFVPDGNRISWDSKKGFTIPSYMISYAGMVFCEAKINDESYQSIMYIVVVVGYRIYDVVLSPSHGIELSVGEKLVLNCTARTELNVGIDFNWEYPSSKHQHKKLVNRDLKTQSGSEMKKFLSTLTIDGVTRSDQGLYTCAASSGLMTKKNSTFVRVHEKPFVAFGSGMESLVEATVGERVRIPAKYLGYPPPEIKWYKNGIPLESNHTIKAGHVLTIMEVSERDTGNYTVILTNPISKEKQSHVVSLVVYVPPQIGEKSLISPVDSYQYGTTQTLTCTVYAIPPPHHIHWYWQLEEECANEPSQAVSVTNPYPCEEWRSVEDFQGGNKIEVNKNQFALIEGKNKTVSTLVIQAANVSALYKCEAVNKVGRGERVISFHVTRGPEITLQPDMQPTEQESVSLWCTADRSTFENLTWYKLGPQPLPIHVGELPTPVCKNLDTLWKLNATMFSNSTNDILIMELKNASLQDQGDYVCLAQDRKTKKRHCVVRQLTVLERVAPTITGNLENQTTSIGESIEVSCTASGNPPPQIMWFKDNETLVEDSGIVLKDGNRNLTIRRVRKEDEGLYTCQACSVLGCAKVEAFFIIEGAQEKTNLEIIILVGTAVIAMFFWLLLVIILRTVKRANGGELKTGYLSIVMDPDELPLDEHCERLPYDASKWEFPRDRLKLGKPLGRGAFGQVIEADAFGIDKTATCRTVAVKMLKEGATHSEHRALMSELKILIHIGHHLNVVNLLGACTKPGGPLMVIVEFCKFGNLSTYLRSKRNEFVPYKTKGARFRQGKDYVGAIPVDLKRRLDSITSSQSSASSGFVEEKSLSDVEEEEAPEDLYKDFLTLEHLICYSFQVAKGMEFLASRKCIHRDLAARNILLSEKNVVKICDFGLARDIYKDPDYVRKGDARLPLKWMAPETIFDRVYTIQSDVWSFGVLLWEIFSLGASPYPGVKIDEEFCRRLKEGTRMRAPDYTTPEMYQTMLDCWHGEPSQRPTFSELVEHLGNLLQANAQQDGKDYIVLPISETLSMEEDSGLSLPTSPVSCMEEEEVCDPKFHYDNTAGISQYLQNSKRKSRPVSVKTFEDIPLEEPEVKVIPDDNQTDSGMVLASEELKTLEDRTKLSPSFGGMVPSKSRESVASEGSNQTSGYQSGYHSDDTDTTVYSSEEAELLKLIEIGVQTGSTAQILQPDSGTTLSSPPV
"pERK Assay Results (AlphaLISA p-Erk1/2, HUVEC) (VEGFR-2 [1])","proliferation (HUVEC, CellTiter-Glo) (VEGFR-2 [2])","pERK Assay Results (AlphaLISA p-Erk1/2, HUVEC) (VEGFR-2 [3])",Binder
≥ 50 % activity at 10 nM,–,–,{CH2CO}-[F4aao]W[Tle]DVKDDLYF[hTyr]DCG-NH2 (thioether N-14; not fully specified (residue 6); reading uncertain; also: homodimer: Lys6 joined to Lys6 of second copy by cPEG17c (Linker Structure No. 4)) [Peptide complex Dimer Structure No. 24]
–,≥ 50 % activity at 1.25 nM,≥ 50 % activity at 20 nM,{CH2CO}-[W7N]W[Tle]DVKDDLYF[hTyr]DCG-NH2 (thioether N-14; also: homodimer: Lys6 joined to Lys6 of second copy by cPEG17c (Linker Structure No. 4)) [Peptide complex Dimer Structure No. 46]
≥ 50 % activity at 100 nM,–,–,{CH2CO}-WWVDVKDDLYF[hTyr]DCG-NH2 (thioether N-14; not fully specified (residue 6); also: homodimer: Lys6 joined to Lys6 of second copy by cPEG17c (Linker Structure No. 4)) [Peptide complex Dimer Structure No. 18]
≥ 50 % activity at 10 nM,–,–,{CH2CO}-[4Py2NH2]W[Tle]DVKDDLYF[hTyr]DCG-NH2 (thioether N-14; not fully specified (residue 6); reading uncertain; also: homodimer: Lys6 joined to Lys6 of second copy by cPEG17c (Linker Structure No. 4)) [Peptide complex Dimer Structure No. 22]
–,≥ 50 % activity at 1.25 nM,≥ 50 % activity at 20 nM,{CH2CO}-WWVDVKDDLYFVDCG-NH2 (thioether N-14; also: homodimer: Lys6 joined to Lys6 of second copy by cPEG17c (Linker Structure No. 4)) [Peptide complex Dimer Structure No. 42]
≥ 50 % activity at 100 nM,< 50 % activity at 100 nM,–,{CH2CO}-WWVDV[Ahp′]DDLYFVDCG (thioether N-14; reading uncertain; also: dimer joined at Gly15 C-termini by PEG12c-K-PEG12c) [Peptide complex Dimer Structure No. 2]
–,≥ 50 % activity at 10 nM,≥ 50 % activity at 10 nM,{CH2CO}-WW[Tle]D[alT]KDDLYF[hTyr]DCG-NH2 (thioether N-14; not fully specified (residue 6); also: homodimer: Lys6 joined to Lys6 of second copy by cPEG17c (Linker Structure No. 4)) [Peptide complex Dimer Structure No. 27]
≥ 50 % activity at 100 nM,–,–,{CH2CO}-WWVDVKDDLY[F4G]VDCG-NH2 (thioether N-14; not fully specified (residue 6); also: homodimer: Lys6 joined to Lys6 of second copy by cPEG17c (Linker Structure No. 4)) [Peptide complex Dimer Structure No. 17]
–,≥ 50 % activity at 1.25 nM,≥ 50 % activity at 20 nM,{CH2CO}-WW[Tle]DVKNDLYF[hTyr]DCG-NH2 (thioether N-14; also: homodimer: Lys6 joined to Lys6 of second copy by cPEG17c (Linker Structure No. 4)) [Peptide complex Dimer Structure No. 47]
–,≥ 50 % activity at 5 nM,≥ 50 % activity at 5 nM,{CH2CO}-WW[Tle]DVKDD[Atb]YF[hTyr]DCG-NH2 (thioether N-14; reading uncertain; also: homodimer: Lys6 joined to Lys6 of second copy by OCOPEG17OCO (Linker Structure No. 6)) [Peptide complex Dimer Structure No. 52]
–,≥ 50 % activity at 10 nM,≥ 50 % activity at 10 nM,{CH2CO}-WW[Tle]DVKDDLYF[hTyr]SCG-NH2 (thioether N-14; also: homodimer: Lys6 joined to Lys6 of second copy by cPEG17c (Linker Structure No. 4)) [Peptide complex Dimer Structure No. 33]
–,≥ 50 % activity at 5 nM,≥ 50 % activity at 20 nM,{CH2CO}-WW[Tle]DVKDDLY[F4G][hTyr]DCG-NH2 (thioether N-14; also: homodimer: Lys6 joined to Lys6 of second copy by cPEG17c (Linker Structure No. 4)) [Peptide complex Dimer Structure No. 45]
≥ 50 % activity at 10 nM,–,–,{CH2CO}-[Hcit]W[Tle]DVKDDLYF[hTyr]DCG-NH2 (thioether N-14; not fully specified (residue 6); also: homodimer: Lys6 joined to Lys6 of second copy by cPEG17c (Linker Structure No. 4)) [Peptide complex Dimer Structure No. 21]
–,≥ 50 % activity at 5 nM,≥ 50 % activity at 5 nM,{CH2CO}-WW[Tle]DVKDDLY[F4G]VDCG-NH2 (thioether N-14; also: homodimer: Lys6 joined to Lys6 of second copy by cPEG17c (Linker Structure No. 4)) [Peptide complex Dimer Structure No. 43]
≥ 50 % activity at 10 nM,–,–,{CH2CO}-WW[Tle]DVKDDLY[Yph][hTyr]DCG-NH2 (thioether N-14; not fully specified (residue 6); reading uncertain; also: homodimer: Lys6 joined to Lys6 of second copy by cPEG17c (Linker Structure No. 4)) [Peptide complex Dimer Structure No. 20]
–,≥ 50 % activity at 5 nM,≥ 50 % activity at 20 nM,{CH2CO}-WW[Tle]DVKDD[Atb]YF[hTyr]DCG-NH2 (thioether N-14; reading uncertain; also: homodimer: Lys6 joined to Lys6 of second copy by OCOPEG13OCO (Linker Structure No. 5)) [Peptide complex Dimer Structure No. 49]
–,≥ 50 % activity at 10 nM,≥ 50 % activity at 10 nM,{CH2CO}-WW[Tle]DVKDDLYF[Chg]DCG-NH2 (thioether N-14; not fully specified (residue 6); also: homodimer: Lys6 joined to Lys6 of second copy by cPEG17c (Linker Structure No. 4)) [Peptide complex Dimer Structure No. 31]
≥ 50 % activity at 10 nM,< 50 % activity at 100 nM,–,{CH2CO}-WWVDV[Cha]DDLYFVDCG (thioether N-14; also: dimer: C-terminus joined to second copy by PEG12c-K-PEG12c) [Peptide complex Dimer Structure No. 5]
≥ 50 % activity at 10 nM,–,–,{CH2CO}-[3Py6NH2]W[Tle]DVKDDLYF[hTyr]DCG-NH2 (thioether N-14; not fully specified (residue 6); reading uncertain; also: homodimer: Lys6 joined to Lys6 of second copy by cPEG17c (Linker Structure No. 4)) [Peptide complex Dimer Structure No. 23]
≥ 50 % activity at 100 nM,–,–,{CH2CO}-WWVDVKDDLY[Yph]VDCG-NH2 (thioether N-14; not fully specified (residue 6); reading uncertain; also: homodimer: Lys6 joined to Lys6 of second copy by cPEG17c (Linker Structure No. 4)) [Peptide complex Dimer Structure No. 16]
–,≥ 50 % activity at 5 nM,≥ 50 % activity at 5 nM,{CH2CO}-WW[Tle]DVKDD[Atb]Y[F4G][hTyr]DCG-NH2 (thioether N-14; reading uncertain; also: dimer: Lys6 joined to Lys6 of second copy by OCOPEG17OCO (Linker Structure No. 6)) [Peptide complex Dimer Structure No. 53]
≥ 50 % activity at 100 nM,–,–,{CH2CO}-WW[Tle]DVKDDLY[Yph]VDCG-NH2 (thioether N-14; not fully specified (residue 6); reading uncertain; also: homodimer: Lys6 joined to Lys6 of second copy by cPEG17c (Linker Structure No. 4)) [Peptide complex Dimer Structure No. 19]
–,≥ 50 % activity at 10 nM,≥ 50 % activity at 10 nM,"{CH2CO}-WW[Tle]DVKDDNYF[hTyr]DCG-NH2 (thioether N-14; not fully specified (residues 5, 6); also: dimer joined at Lys6 side chains by cPEG17c) [Peptide complex Dimer Structure No. 29]"
≥ 50 % activity at 10 nM,< 50 % activity at 100 nM,–,{CH2CO}-WWVDVK(CO(CH2CH2O)9CH2CH2CO)DDLYFVDCG-NH2 (thioether N-14; also: dimer: Lys6 joined to Lys6 of second copy by cPEG9c) [Peptide complex Dimer Structure No. 13]
–,≥ 50 % activity at 5 nM,≥ 50 % activity at 5 nM,{CH2CO}-WW[Tle]DVKDDLY[F4G]VDCG-NH2 (thioether N-14; also: homodimer: Lys6 joined to Lys6 of second copy by OCOPEG17OCO (Linker Structure No. 6)) [Peptide complex Dimer Structure No. 51]
